Assay [1] has as its target canine PD-L1-His (canine). The experiment in a line: SPR (Biacore X100), cPD-L1-His captured by anti-histidine antibody on a CM5 chip, canine CD80-Ig as analyte. For orientation: In SPR one partner is held on a chip, and binding of the other changes the refractive index at the surface.
Assay [2] has as its target canine PD-L1-His (canine). The experiment in a line: SPR (Biacore X100), cPD-L1-His captured by anti-histidine antibody on a CM5 chip, canine PD-1-Ig as analyte.

What is called Kd is the concentration at which binding is half-saturated. Low values mean higher affinity, high ones lower affinity.

For canine CD80-Ig (Fc fusion), the Kd in assay [1] amounted to 24.3 nM.
Regarding canine PD-1-Ig (Fc fusion), in assay [2], the Kd was 25.4 nM.
